Results on five sequences are retold here after the supplement of paper PMC5998384.

Data set [1] relates to HeLa Kyoto. Put plainly: thermal stability score vs G1/S (z-score of summed log2 fold changes over temperatures); higher = more thermally stable than in G1/S.
Data set [2] relates to HeLa Kyoto. Nature of the data set: solubility change mitosis vs G1/S (difference of NP-40 vs SDS log2 ratios) (log2 ratio difference); higher = more soluble in mitosis.
In data set [3] the test system is HeLa Kyoto. Nature of the data set: solubility in G1/S (NP-40 vs SDS abundance) (log2 ratio); higher = more soluble. As to conditions: cell cycle stage: G1/S.
Data set [4] has as its system HeLa Kyoto. Nature of the data set: melting temperature (median over replicates), in situ; higher = more thermally stable.
Where [5] appears, read: cell cycle stage: early G1 (4.5 h after nocodazole release).
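Throughout, for melting temperature (median over replicates), in situ: HeLa Kyoto cells synchronized by double thymidine or nocodazole block, proteins quantified by TMT10plex mass spectrometry, three independent biological replicates.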
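Throughout, for solubility change mitosis vs G1/S (difference of NP-40 vs SDS log2 ratios): synchronized HeLa Kyoto cells (double thymidine block for G1/S, nocodazole release for mitosis), protein amounts in NP-40 versus SDS lysates quantified by mass spectrometry, three biological replicates.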
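Throughout, for solubility in G1/S (NP-40 vs SDS abundance): HeLa Kyoto cells arrested at G1/S by double thymidine block, proteins quantified by TMT10plex mass spectrometry in mild NP-40 versus SDS extracts, three biological replicates.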
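Throughout, for thermal stability score vs G1/S (z-score of summed log2 fold changes over temperatures): synchronized HeLa Kyoto cells, proteins quantified by TMT10plex mass spectrometry, three biological replicates, mitosis taken 0.5 h after nocodazole release, G1/S directly after double thymidine block.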

In the case of “MGLLRGGLPCARAMARLGAVRSHYCALLLAAALAVCAFYYLGSGRETFSSATKRLKEARAGAPAAPSPPALELARGSVAPAPGAKAKSLEGGGAGPVDYHLLMMFTKAEHNAALQAKARVALRSLLRLAKFEAHEVLNLHFVSEEASREVAKGLLRELLPPAAGFKCKVIFHDVAVLTDKLFPIVEAMQKHFSAGLGTYYSDSIFFLSVAMHQIMPKEILQIIQLDLDLKFKTNIRELFEEFDSFLPGAIIGIAREMQPVYRHTFWQFRHENPQTRVGGPPPEGLPGFNSGVMLLNLEAMRQSPLYSRLLEPAQVQQLADKYHFRGHLGDQDFFTMIGMEHPKLFHVLDCTWNRQLCTWWRDHGYSDVFEAYFRCEGHVKIYHGNCNTPIPED [XXYLT1]”, the thermal stability score in the data set with HeLa Kyoto [1] (setting [5]) is -1.07; with HeLa Kyoto [1] (cell cycle stage: mitosis), -1.02. Besides, in the data set on HeLa Kyoto [2], the “solubility change mitosis (log2)” value is -0.0858. Moreover, the “solubility in G1/S (log2)” value in the data set with HeLa Kyoto [3] is -0.0927. Further, the melting temperature with HeLa Kyoto [4] (cell cycle stage: G1/S) was determined as 54.9 °C; in the data set with HeLa Kyoto [4] (cell cycle stage: mitosis) it was 54.7 °C.
As for “MMPGPRPRKGPQARGQGVAAAKQMGLFMEFGPEDMLLGMDEAEDDEDLEAELLALTGEAQTTGKKPAPKGQAPLPMAHIEKLAADCMRDVEEEEEEEGLEEDAELLTELQEVLGVDEETEPLDGDEVADPGGSEEENGLEDTEPPVQTAVLTASAPAAQAGASQGLHALLEERIHNYREAAASAKEAGEAAKARRCERGLKTLESQLASVRRGRKINEDEIPPPVALGKRPLAPQEPANRSPETDPPAPPALESDNPSQPETSLPGISAQPVSDLDPDPRALLSSRQREYKVAALSAKRAGELDRARELMRIGKRFGAVLEALEKGQPVDLSAMPPAPEDLKPQQASQAPTAPSVIPPAVERVQPVMAPDVPATPVAPTESQTVLDALQQRLNKYREAGIQARSGGDERKARMHERIAKQYQDAIRAHRAGRKVNFAELPVPPGFPPIPGLESTMGVEEDAVAATLAAAEKLASAEDSAPADKDEDEPPGHLQGEPPAQAPVAKKPARPTVPSSQRLPEPRASSSKESPSPSVREQLALLEARKLQYQRAALQAKRSQDLEQAKAYLRVAKWLEAQIIQARSGRPVDLSKVPSPLTDEEGDFILIHHEDLRLSQKAEEVYAQLQKMLLEQQEKCLLFSKQFMHQGNVAETTRFEKLAQDRKKQLEILQLAQAQGLDPPTHHFELKTFQTVRIFSELNSTEMHLIIVRGMNLPAPPGVTPDDLDAFVRFEFHYPNSDQAQKSKTAVVKNTNSPEFDQLFKLNINRNHRGFKRVIQSKGIKFEIFHKGSFFRSDKLVGTAHLKLERLENECEIREIVEVLDGRKPTGGKLEVKVRLREPLSGQDVQMVTENWLVLEPRGL [CC2D1B]”, the thermal stability score with HeLa Kyoto [1] (setting [5]) stood at 0.395; with HeLa Kyoto [1] (cell cycle stage: mitosis), 0.256. Further, the “solubility change mitosis (log2)” value with HeLa Kyoto [2] was -0.000596. The “solubility in G1/S (log2)” value in the data set on HeLa Kyoto [3] was found to be 0.252. For the same sequence, the melting temperature with HeLa Kyoto [4] (cell cycle stage: G1/S) is 50.4 °C; in the data set with HeLa Kyoto [4] (cell cycle stage: mitosis), 50.3 °C.
As to “MVSHSELRKLFYSADAVCFDVDSTVIREEGIDELAKICGVEDAVSEMTRRAMGGAVPFKAALTERLALIQPSREQVQRLIAEQPPHLTPGIRELVSRLQERNVQVFLISGGFRSIVEHVASKLNIPATNVFANRLKFYFNGEYAGFDETQPTAESGGKGKVIKLLKEKFHFKKIIMIGDGATDMEACPPADAFIGFGGNVIRQQVKDNAKWYITDFVELLGELEE [PSPH]”, the thermal stability score was -0.555 in the data set on HeLa Kyoto [1] (setting [5]) and -0.969 with HeLa Kyoto [1] (cell cycle stage: mitosis). Moreover, the “solubility change mitosis (log2)” value with HeLa Kyoto [2] was -0.049. For the same sequence, the “solubility in G1/S (log2)” value in the data set on HeLa Kyoto [3] stood at 0.258. The melting temperature was 56.6 °C with HeLa Kyoto [4] (cell cycle stage: G1/S) and 58.2 °C in the data set with HeLa Kyoto [4] (cell cycle stage: mitosis).
On to “MSTAREQPIFSTRAHVFQIDPATKRNWIPAGKHALTVSYFYDATRNVYRIISIGGAKAIINSTVTPNMTFTKTSQKFGQWADSRANTVYGLGFASEQHLTQFAEKFQEVKEAARLAREKSQDGGELTSPALGLASHQVPPSPLVSANGPGEEKLFRSQSADAPGPTERERLKKMLSEGSVGEVQWEAEFFALQDSNNKLAGALREANAAAAQWRQQLEAQRAEAERLRQRVAELEAQAASEVTPTGEKEGLGQGQSLEQLEALVQTKDQEIQTLKSQTGGPREALEAAEREETQQKVQDLETRNAELEHQLRAMERSLEEARAERERARAEVGRAAQLLDVSLFELSELREGLARLAEAAP [HOMER3]”, for which the thermal stability score was -1.1 with HeLa Kyoto [1] (setting [5]) and -1.09 in the data set on HeLa Kyoto [1] (cell cycle stage: mitosis). For the same sequence, the “solubility change mitosis (log2)” value with HeLa Kyoto [2] stood at 0.0389. Further, in the data set on HeLa Kyoto [3], the “solubility in G1/S (log2)” value amounted to 0.263. Also, the melting temperature in the data set on HeLa Kyoto [4] (cell cycle stage: G1/S) was determined as 48.7 °C; in the data set on HeLa Kyoto [4] (cell cycle stage: mitosis), 51.7 °C.
Regarding “MDLENKVKKMGLGHEQGFGAPCLKCKEKCEGFELHFWRKICRNCKCGQEEHDVLLSNEEDRKVGKLFEDTKYTTLIAKLKSDGIPMYKRNVMILTNPVAAKKNVSINTVTYEWAPPVQNQALARQYMQMLPKEKQPVAGSEGAQYRKKQLAKQLPAHDQDPSKCHELSPREVKEMEQFVKKYKSEALGVGDVKLPCEMDAQGPKQMNIPGGDRSTPAAVGAMEDKSAEHKRTQYSCYCCKLSMKEGDPAIYAERAGYDKLWHPACFVCSTCHELLVDMIYFWKNEKLYCGRHYCDSEKPRCAGCDELIFSNEYTQAENQNWHLKHFCCFDCDSILAGEIYVMVNDKPVCKPCYVKNHAVVCQGCHNAIDPEVQRVTYNNFSWHASTECFLCSCCSKCLIGQKFMPVEGMVFCSVECKKRMS [TES]”, the values for the thermal stability score in the data set on HeLa Kyoto [1] (setting [5]) and in the data set with HeLa Kyoto [1] (cell cycle stage: mitosis) were -0.92 and -1.54, respectively. In the data set on HeLa Kyoto [2], the “solubility change mitosis (log2)” value was -0.111. In addition, in the data set with HeLa Kyoto [3], the “solubility in G1/S (log2)” value was determined as 0.0767. Also, the melting temperature came to 52 °C in the data set on HeLa Kyoto [4] (cell cycle stage: G1/S) and 52.3 °C in the data set on HeLa Kyoto [4] (cell cycle stage: mitosis).
